Data reported in patent US20220306739A1 (Janssen / Centocor, published 2022).
Read-outs that look alike come from different tables or passages of the source.

How the values were obtained:
CD123 [1] = biological target: T1, CD123 (human, UniProt P26951 19-378); experiment: flow cytometry, % Binding on Kasumi-3 cells (TAA expressing cell line); same graph as FIG. 30A
T1 construct: whole, on cells; also called IL3RA; interleukin-3 receptor
Source text: (§1) Cells were visualized on forward and sideward scatter and doublets were excluded. No secondary antibody control was used to establish background fluorescence and to gate on specific population. Background value was subtracted from main samples to get specific binding value.

CD123 [2] = biological target: T1, CD123; experiment: flow cytometry, % Binding; graph under the Kasumi-3 histogram, Kasumi-3 cells by legend paragraph 83
Source text: as §1

CD123 [3] = biological target: T1, CD123; experiment: flow cytometry, % Binding on Kasumi-3 cells (CD123 expressing cell line)
Source text: as §1

CD123 [4] = biological target: T1, CD123; experiment: flow cytometry, % binding of bispecific antibody to Kasumi-3 cells (CD123 expressing)
Source text: as §1

[5] = biological target: T2, B cell maturation antigen (BCMA) (UniProt Q02223 1-184, limits assumed); experiment: cell-based or functional assay
T2 sequence (looked up): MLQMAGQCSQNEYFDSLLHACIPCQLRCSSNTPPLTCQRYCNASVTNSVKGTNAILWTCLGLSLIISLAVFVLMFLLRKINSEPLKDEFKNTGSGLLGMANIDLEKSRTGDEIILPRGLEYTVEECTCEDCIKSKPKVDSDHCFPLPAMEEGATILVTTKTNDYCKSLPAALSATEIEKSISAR

CD33 [6] = biological target: T3, CD33 (human, UniProt P20138 18-364); experiment: FACS binding to Kasumi-1 cells (CD33 med), MFI
T3 construct: whole, on cells; also called CD33 on MOLM-13, Kasumi-1, OCI-AML-3 and Kasumi-3 cells
T3 sequence (P20138 18-364): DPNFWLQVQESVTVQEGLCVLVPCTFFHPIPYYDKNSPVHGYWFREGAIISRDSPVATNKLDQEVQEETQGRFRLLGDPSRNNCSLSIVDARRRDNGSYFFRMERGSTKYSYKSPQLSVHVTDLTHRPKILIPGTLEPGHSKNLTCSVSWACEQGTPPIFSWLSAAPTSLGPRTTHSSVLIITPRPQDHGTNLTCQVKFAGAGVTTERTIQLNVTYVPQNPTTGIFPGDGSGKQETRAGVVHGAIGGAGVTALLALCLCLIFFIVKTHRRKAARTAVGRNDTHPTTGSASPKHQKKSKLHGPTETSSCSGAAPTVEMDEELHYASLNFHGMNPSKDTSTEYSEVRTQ

CD33 [7] = biological target: T3, CD33; experiment: FACS binding to MOLM-13 cells (CD33 high), MFI
CD33 [8] = biological target: T3, CD33; experiment: FACS binding to OCI-AML-3 cells (CD33 low), MFI
[9] = biological target: T2, B cell maturation antigen (BCMA); experiment: cell-based or functional assay; remark: listed apart in the source
[10] = biological target: T2, B cell maturation antigen (BCMA); experiment: cell-based or functional assay; remark: listed apart in the source
[11] = biological target: T2, B cell maturation antigen (BCMA); experiment: cell-based or functional assay; remark: listed apart in the source
[12] = biological target: T2, B cell maturation antigen (BCMA); experiment: cell-based or functional assay; remark: listed apart in the source

T1 sequence (P26951 19-378): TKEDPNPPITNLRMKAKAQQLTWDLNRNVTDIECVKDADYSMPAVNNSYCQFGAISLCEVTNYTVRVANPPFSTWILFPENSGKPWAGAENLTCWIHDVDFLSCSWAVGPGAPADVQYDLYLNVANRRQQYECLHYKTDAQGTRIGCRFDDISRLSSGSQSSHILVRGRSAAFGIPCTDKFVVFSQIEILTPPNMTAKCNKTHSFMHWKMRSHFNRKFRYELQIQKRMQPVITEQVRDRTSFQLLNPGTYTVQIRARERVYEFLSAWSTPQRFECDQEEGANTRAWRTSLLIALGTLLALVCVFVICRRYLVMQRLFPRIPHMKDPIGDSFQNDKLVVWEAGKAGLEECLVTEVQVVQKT

B1: VG1 (anti-TRGV9/anti-CD123 bispecific antibody) (bispecific antibody, human IgG4 S228P, kappa, F234A L235A)
heavy 1: EVQLQQSGAELARPGASVKLSCKASGFTFTDHYINWVKQRTGQGLEWIGQIYPGDGNTYYNQKFKGKATLTADKSSSTAYMQLSSLTSEDSAVYFCAPNYGDYTIDFWGQGTSVTVSSASTKGPSVFPLAPCSRSTSESTAALGCLVKDYFPEPVTVSWNSGALTSGVHTFPAVLQSSGLYSLSSVVTVPSSSLGTKTYTCNVDHKPSNTKVDKRVESKYGPPCPPCPAPEAAGGPSVFLFPPKPKDTLMISRTPEVTCVVVDVSQEDPEVQFNWYVDGVEVHNAKTKPREEQFNSTYRVVSVLTVLHQDWLNGKEYKCKVSNKGLPSSIEKTISKAKGQPREPQVYTLPPSQEEMTKNQVSLSCAVKGFYPSDIAVEWESNGQPENNYKTTPPVLDSDGSFFLVSRLTVDKSRWQEGNVFSCSVMHEALHNRFTQKSLSLSLGK
light 1: DIVMSQSPSSLAVSVGEKVTMSCKSSQSLLYSSNQKNYLAWYQQKPGQSPKLLIYWASTRESGVPDRFTGSGSGTDFTLTISSVKAEDLAVYYCQQYYRYHTFGTGTKLEIKRTVAAPSVFIFPPSDEQLKSGTASVVCLLNNFYPREAKVQWKVDNALQSGNSQESVTEQDSKDSTYSLSSTLTLSKADYEKHKVYACEVTHQGLSSPVTKSFNRGEC
heavy 2: EVQLVQSGAEVKKPGESLKISCKGSGYSFTSYWISWVRQMPGKGLEWMGIIDPSDSDTRYSPSFQGQVTISADKSISTAYLQWSSLKASDTAMYYCARGDGSTDLDYWGQGTLVTVSSASTKGPSVFPLAPCSRSTSESTAALGCLVKDYFPEPVTVSWNSGALTSGVHTFPAVLQSSGLYSLSSVVTVPSSSLGTKTYTCNVDHKPSNTKVDKRVESKYGPPCPPCPAPEAAGGPSVFLFPPKPKDTLMISRTPEVTCVVVDVSQEDPEVQFNWYVDGVEVHNAKTKPREEQFNSTYRVVSVLTVLHQDWLNGKEYKCKVSNKGLPSSIEKTISKAKGQPREPQVYTLPPSQEEMTKNQVSLWCLVKGFYPSDIAVEWESNGQPENNYKTTPPVLDSDGSFFLYSRLTVDKSRWQEGNVFSCSVMHEALHNHYTQKSLSLSLGK
light 2: EIVLTQSPGTLSLSPGERATLSCRASQSVSSSYLAWYQQKPGQAPRLLIYGASSRATGIPDRFSGSGSGTDFTLTISRLEPEDFAVYYCQQDYGFPWTFGQGTKVEIKRTVAAPSVFIFPPSDEQLKSGTASVVCLLNNFYPREAKVQWKVDNALQSGNSQESVTEQDSKDSTYSLSSTLTLSKADYEKHKVYACEVTHQGLSSPVTKSFNRGEC
notes: Full-length human IgG4 in knob-into-hole format; also called anti-TRGV9×CD123; Vγ9/CD123 bispecific
CD123 [1]
  EC50: 0.43 nM
CD123 [2]
  EC50: 0.354 nM
CD123 [3]
  EC50: 0.43 nM
CD123 [4]
  EC50: 0.354 nM
  EC50 (read off the curve): ~0.05 µg/mL

B2: anti-TRGV9/anti-BCMA bispecific antibody (VG9SB10SC1087_P18_D08-Fab RF, BCMA-scFv (BCMB519-scFv)) (BCV9B100.001) (bispecific antibody, human IgG1, kappa, L234A L235A)
heavy: EVQLVQSGAEVKKPGSSVKVSCKASGDTFNNYAISWVRQAPGQGLEWMGGIIPFFGTPDYAQKFQGRVTITADKSTSTAYMELSGLRSEDTAVYYCARPGSGSPDYYYYDMDVWGQGTTVTVSSASTKGPSVFPLAPSSKSTSGGTAALGCLVKDYFPEPVTVSWNSGALTSGVHTFPAVLQSSGLYSLSSVVTVPSSSLGTQTYICNVNHKPSNTKVDKKVEPKSCDKTHTCPPCPAPEAAGGPSVFLFPPKPKDTLMISRTPEVTCVVVSVSHEDPEVKFNWYVDGVEVHNAKTKPREEQYNSTYRVVSVLTVLHQDWLNGKEYKCKVSNKALPAPIEKTISKAKGQPREPQVYVYPPSREEMTKNQVSLTCLVKGFYPSDIAVEWESNGQPENNYKTTPPVLDSDGSFALVSKLTVDKSRWQQGNVFSCSVMHEALHNRFTQKSLSLSPGK
light: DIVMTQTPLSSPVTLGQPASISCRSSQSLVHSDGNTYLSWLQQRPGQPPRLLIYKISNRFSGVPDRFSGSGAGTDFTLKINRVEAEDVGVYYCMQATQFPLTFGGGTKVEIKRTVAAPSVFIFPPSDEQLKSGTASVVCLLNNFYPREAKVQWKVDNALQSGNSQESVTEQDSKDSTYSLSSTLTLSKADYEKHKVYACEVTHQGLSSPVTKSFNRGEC
scFv: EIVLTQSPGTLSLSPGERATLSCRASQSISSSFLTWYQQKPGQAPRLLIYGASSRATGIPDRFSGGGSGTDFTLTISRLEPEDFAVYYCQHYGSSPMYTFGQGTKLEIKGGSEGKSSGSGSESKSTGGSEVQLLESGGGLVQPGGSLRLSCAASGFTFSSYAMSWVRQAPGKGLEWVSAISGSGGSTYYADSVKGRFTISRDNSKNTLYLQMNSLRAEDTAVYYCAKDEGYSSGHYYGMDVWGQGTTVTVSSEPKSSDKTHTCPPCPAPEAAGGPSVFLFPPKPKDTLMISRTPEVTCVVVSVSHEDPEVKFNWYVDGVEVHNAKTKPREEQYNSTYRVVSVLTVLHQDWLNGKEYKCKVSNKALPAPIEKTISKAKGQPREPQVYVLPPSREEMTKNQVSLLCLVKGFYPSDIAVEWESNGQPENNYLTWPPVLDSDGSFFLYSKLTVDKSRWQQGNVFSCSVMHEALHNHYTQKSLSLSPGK
[5]
  EC50 of γδ T-cell mediated cytotoxicity of H929 tumor cells: 0.81 nM

B3: anti-CD33 antibody (clone C33B904) (antibody, V domains shown)
VH: EVQLVESGGGLVQPGRSLRLSCAASGFTFDDYAMHWVRQAPGKGLEWVSGIGWSGGSIVYADSVKGRFTISRDNAKNSLYLQMNSLRAEDTALYYCAKDSPYGDFFDYWGQGTLVTVSS
VL: DIVMTQSPDSLAVSLGERATINCKSSQTVFYSSNNKNYLAWYQQKPGQPPKLLISWASTRKSGVPDRFSGSGSGTDFTLTVSSLQAEDVAVYYCQHYYSTPYTFGQGTKLEIK
CD33 [6]
  EC50: 82.2 nM
CD33 [7]
  EC50: ~134 nM
CD33 [8]
  EC50: 16.4 nM

B4: anti-TRGV9/anti-BCMA bispecific antibody (VG9SB10SC1087_P19_C03-Fab RF, BCMA-scFv (BCMB519-scFv)) (BCV9B103.001) (bispecific antibody, human IgG1, kappa, L234A L235A)
heavy: QVQLQESGPGLVKPSQTLSLTCTVSGGSISSGGSYWSWIRQHPGKGLEWIGYIYNSGSTYYNPSLKSRVSMSVDTSKNQFSLKLSSVTAADTAVYYCARDSNYEWFFDLWGPGTLVTVSSASTKGPSVFPLAPSSKSTSGGTAALGCLVKDYFPEPVTVSWNSGALTSGVHTFPAVLQSSGLYSLSSVVTVPSSSLGTQTYICNVNHKPSNTKVDKKVEPKSCDKTHTCPPCPAPEAAGGPSVFLFPPKPKDTLMISRTPEVTCVVVSVSHEDPEVKFNWYVDGVEVHNAKTKPREEQYNSTYRVVSVLTVLHQDWLNGKEYKCKVSNKALPAPIEKTISKAKGQPREPQVYVYPPSREEMTKNQVSLTCLVKGFYPSDIAVEWESNGQPENNYKTTPPVLDSDGSFALVSKLTVDKSRWQQGNVFSCSVMHEALHNRFTQKSLSLSPGK
light: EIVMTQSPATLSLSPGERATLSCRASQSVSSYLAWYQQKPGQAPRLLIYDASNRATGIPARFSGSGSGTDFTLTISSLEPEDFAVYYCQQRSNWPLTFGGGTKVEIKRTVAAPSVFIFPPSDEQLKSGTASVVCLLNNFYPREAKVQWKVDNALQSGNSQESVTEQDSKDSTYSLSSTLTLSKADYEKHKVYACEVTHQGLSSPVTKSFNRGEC
scFv: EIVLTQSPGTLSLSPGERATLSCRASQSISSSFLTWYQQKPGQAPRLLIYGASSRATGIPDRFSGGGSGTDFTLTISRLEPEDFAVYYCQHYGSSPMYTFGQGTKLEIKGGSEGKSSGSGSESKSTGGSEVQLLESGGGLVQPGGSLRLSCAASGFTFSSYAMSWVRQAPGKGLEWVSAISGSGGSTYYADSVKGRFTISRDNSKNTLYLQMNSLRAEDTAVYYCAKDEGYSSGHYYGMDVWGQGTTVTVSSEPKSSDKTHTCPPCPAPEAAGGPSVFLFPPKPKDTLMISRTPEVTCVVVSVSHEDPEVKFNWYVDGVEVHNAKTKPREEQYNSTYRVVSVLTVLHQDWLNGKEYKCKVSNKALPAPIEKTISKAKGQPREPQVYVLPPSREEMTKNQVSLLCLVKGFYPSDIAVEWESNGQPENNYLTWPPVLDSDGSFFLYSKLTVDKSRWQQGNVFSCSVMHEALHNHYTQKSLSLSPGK
[9]
  EC50 of γδ T-cell mediated cytotoxicity of H929 tumor cells: 5.84 nM

B5: anti-TRGV9/anti-BCMA bispecific antibody BCV9B106 (B3) (bispecific antibody, human IgG1, kappa, L234A L235A)
scFv-Fc: DIQMTQSPASLSASVGETVTITCRASENIHNYLAWYQQKQGKSPQLLVYNAKTLADGVPSRFSGSGSGTQYSLKINSLQPEDFGNYYCQHFWSYPLTFGAGTKLELKGGSEGKSSGSGSESKSTGGSQGQMQQSGAELVKPGASVKLSCKTSGFTFSSNYISWLKQKPGQSLEWIAWIHGGTGGIGYNQKFTGKAQLTVDTSSTTAYMQFSSLTTEDSAIYYCARRGYGAWFAYWGQGTLVTVSAEPKSSDKTHTCPPCPAPEAAGGPSVFLFPPKPKDTLMISRTPEVTCVVVSVSHEDPEVKFNWYVDGVEVHNAKTKPREEQYNSTYRVVSVLTVLHQDWLNGKEYKCKVSNKALPAPIEKTISKAKGQPREPQVYVYPPSREEMTKNQVSLTCLVKGFYPSDIAVEWESNGQPENNYKTTPPVLDSDGSFALVSKLTVDKSRWQQGNVFSCSVMHEALHNHYTQKSLSLSPGK
heavy: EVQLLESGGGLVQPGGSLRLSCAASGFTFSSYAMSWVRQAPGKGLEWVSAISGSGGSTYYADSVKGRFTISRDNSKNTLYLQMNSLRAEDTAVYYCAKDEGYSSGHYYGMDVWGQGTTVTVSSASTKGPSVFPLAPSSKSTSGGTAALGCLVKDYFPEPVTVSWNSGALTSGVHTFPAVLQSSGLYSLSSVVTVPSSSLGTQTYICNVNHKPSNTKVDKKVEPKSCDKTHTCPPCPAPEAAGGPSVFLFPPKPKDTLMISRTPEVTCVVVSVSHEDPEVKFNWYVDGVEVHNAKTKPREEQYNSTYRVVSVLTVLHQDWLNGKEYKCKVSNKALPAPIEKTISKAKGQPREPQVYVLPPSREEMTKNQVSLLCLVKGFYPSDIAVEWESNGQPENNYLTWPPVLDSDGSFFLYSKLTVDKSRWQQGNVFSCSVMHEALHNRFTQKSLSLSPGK
light: EIVLTQSPGTLSLSPGERATLSCRASQSISSSFLTWYQQKPGQAPRLLIYGASSRATGIPDRFSGGGSGTDFTLTISRLEPEDFAVYYCQHYGSSPMYTFGQGTKLEIKRTVAAPSVFIFPPSDEQLKSGTASVVCLLNNFYPREAKVQWKVDNALQSGNSQESVTEQDSKDSTYSLSSTLTLSKADYEKHKVYACEVTHQGLSSPVTKSFNRGEC
[10]
  EC50 of γδ T-cell mediated cytotoxicity of H929 tumor cells: 33.7 nM

B6: anti-TRGV9/anti-BCMA bispecific antibody (HC1: VG9B420-LH-scFv; HC2: BCMA-Fab (BCMB519-Fab)) (BCV9B71.001) (bispecific antibody, human IgG1, kappa, L234A L235A)
scFv: EIVMTQSPGTLSLSPGDRATLSCRASQSVASSYLAWYQQKPGQSPRLLIYGASSRATGIPDRFSGSGSGTDFTLTISRLEPEDFAVYYCQQYGSSPPYTFGQGTRLEIKGGSEGKSSGSGSESKSTGGSEVQLVESGGGLVKPGGSLRLSCSASGFTFSNYDMNWVRQAPGKGLEWVSSISSSSSYIYYADSVKGRFTISRDNAKNSLYLQMNSLRAEDTAVYHCARDVGVTTDYYYYGMDVWGQGTMVTVSSEPKSSDKTHTCPPCPAPEAAGGPSVFLFPPKPKDTLMISRTPEVTCVVVSVSHEDPEVKFNWYVDGVEVHNAKTKPREEQYNSTYRVVSVLTVLHQDWLNGKEYKCKVSNKALPAPIEKTISKAKGQPREPQVYVYPPSREEMTKNQVSLTCLVKGFYPSDIAVEWESNGQPENNYKTTPPVLDSDGSFALVSKLTVDKSRWQQGNVFSCSVMHEALHNHYTQKSLSLSPGK
heavy: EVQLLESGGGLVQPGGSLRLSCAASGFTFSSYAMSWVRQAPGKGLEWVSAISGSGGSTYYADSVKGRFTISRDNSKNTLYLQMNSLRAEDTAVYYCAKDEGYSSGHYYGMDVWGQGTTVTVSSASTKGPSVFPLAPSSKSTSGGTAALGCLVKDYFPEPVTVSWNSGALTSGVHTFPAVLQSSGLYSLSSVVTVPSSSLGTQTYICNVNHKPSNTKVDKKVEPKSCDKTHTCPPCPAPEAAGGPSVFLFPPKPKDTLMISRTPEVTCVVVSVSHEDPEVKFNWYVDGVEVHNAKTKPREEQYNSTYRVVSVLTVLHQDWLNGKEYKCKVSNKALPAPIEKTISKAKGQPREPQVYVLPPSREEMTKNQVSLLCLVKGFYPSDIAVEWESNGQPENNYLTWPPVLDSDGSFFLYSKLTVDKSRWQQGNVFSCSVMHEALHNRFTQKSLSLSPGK
light: B5 light
[11]
  EC50 of γδ T-cell mediated cytotoxicity of H929 tumor cells: 3.2 nM

B7: anti-TRGV9/anti-BCMA bispecific antibody (VG9SB10SC1087_P18_C12-Fab RF, BCMA-scFv (BCMB519-scFv)) (BCV9B101.001) (bispecific antibody, human IgG1, kappa, L234A L235A)
heavy: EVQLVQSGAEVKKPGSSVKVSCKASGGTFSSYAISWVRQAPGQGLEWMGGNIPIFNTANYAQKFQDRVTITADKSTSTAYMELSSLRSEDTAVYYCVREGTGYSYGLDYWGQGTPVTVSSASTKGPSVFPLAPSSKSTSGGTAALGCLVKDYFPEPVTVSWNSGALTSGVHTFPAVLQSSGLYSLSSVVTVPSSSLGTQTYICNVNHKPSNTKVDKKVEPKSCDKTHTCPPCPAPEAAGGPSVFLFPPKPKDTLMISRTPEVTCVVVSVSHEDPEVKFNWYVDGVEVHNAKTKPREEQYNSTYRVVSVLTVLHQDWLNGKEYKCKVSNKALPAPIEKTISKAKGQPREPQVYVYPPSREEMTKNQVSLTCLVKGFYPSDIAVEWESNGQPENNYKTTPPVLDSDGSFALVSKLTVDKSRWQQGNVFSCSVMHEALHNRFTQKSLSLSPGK
light: EIVMTQSPLSSPVTLGQPASISCRSSQSLIHSDGNTYLSWLQQRPGQPPRLLIYKISNRFSGVPDRFSGSGAGTDFTLKISRVEAEDVGIYYCMQAKQFPITFGQGTKVDIKRTVAAPSVFIFPPSDEQLKSGTASVVCLLNNFYPREAKVQWKVDNALQSGNSQESVTEQDSKDSTYSLSSTLTLSKADYEKHKVYACEVTHQGLSSPVTKSFNRGEC
scFv: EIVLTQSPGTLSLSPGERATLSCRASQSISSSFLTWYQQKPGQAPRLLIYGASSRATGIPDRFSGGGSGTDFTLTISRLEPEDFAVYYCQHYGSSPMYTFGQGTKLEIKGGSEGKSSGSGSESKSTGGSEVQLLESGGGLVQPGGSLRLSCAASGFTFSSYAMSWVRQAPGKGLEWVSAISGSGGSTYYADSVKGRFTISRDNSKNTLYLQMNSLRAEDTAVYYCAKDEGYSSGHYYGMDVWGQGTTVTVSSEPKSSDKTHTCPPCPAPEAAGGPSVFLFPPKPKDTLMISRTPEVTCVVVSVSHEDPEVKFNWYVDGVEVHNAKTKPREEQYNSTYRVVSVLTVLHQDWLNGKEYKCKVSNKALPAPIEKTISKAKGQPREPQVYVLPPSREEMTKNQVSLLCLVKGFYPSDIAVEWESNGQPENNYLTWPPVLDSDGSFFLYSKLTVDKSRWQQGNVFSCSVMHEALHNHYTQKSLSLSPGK
[12]
  EC50 of γδ T-cell mediated cytotoxicity of H929 tumor cells: 2.65 nM
